Starred links: 1 amine or outer side, 2 acyl side, 3 side chain; linkers in the order of their positions; H or OH if unused. Non-standard residues stand in square brackets, D forms with d. Groups on a side chain read outwards from the residue. Primed or numbered codes have the meaning given here. No end group written: not given here. *: point of attachment. C20 diacid = O=C(O)CCCCCCCCCCCCCCCCCCC(=O)*; C18 diacid = O=C(O)CCCCCCCCCCCCCCCCC(=O)*; γGlu = O=C(O)[C@H](CCC(=O)[*:2])N[*:1]; Palmitoyl = CCCCCCCCCCCCCCCC(=O)*; αMeF = C[C@](N)(Cc1ccccc1)C(=O)O; Myristoyl = CCCCCCCCCCCCCC(=O)*; PEG2′ = polyethylene glycol 2; αMeS = C[C@](N)(CO)C(=O)O; AEEA = NCCOCCOCC(=O)O; Aib = CC(C)(N)C(=O)O
Target: human GLP-1 receptor (human, UniProt P43220)
Assay: cell-based or functional assay

Row | cAMP production EC50 | Binder
1 | 0.167 nM | H[Aib]QGTFTSDVSK[αMeF]LDRK([AEEA-AEEA-γGlu-C18 diacid])RAQDFVRWLLAE-NH2 (N-terminus assumed; SMILES CC(C)C[C@H](NC(=O)[C@H](CC(C)C)NC(=O)[C@H](Cc1c[nH]c2ccccc12)NC(=O)[C@H](CCCNC(=N)N)NC(=O)[C@@H](NC(=O)[C@H](Cc1ccccc1)NC(=O)[C@H](CC(=O)O)NC(=O)[C@H](CCC(N)=O)NC(=O)[C@H](C)NC(=O)[C@H](CCCNC(=N)N)NC(=O)[C@H](CCCCNC(=O)COCCOCCNC(=O)COCCOCCNC(=O)CC[C@H](NC(=O)CCCCCCCCCCCCCCCCC(=O)O)C(=O)O)NC(=O)[C@H](CCCNC(=N)N)NC(=O)[C@H](CC(=O)O)NC(=O)[C@H](CC(C)C)NC(=O)[C@](C)(Cc1ccccc1)NC(=O)[C@H](CCCCN)NC(=O)[C@H](CO)NC(=O)[C@@H](NC(=O)[C@H](CC(=O)O)NC(=O)[C@H](CO)NC(=O)[C@@H](NC(=O)[C@H](Cc1ccccc1)NC(=O)[C@@H](NC(=O)CNC(=O)[C@H](CCC(N)=O)NC(=O)C(C)(C)NC(=O)[C@@H](N)Cc1c[nH]cn1)[C@@H](C)O)[C@@H](C)O)C(C)C)C(C)C)C(=O)N[C@@H](C)C(=O)N[C@@H](CCC(=O)O)C(N)=O) [Peptide 461]
2 | 0.118 nM | H[Aib]QGTFTSDVSK[αMeF]LDTK([AEEA-AEEA-γGlu-C20 diacid])RARDFVRWLL[Aib]E-NH2 (N-terminus assumed; SMILES CC(C)C[C@H](NC(=O)[C@H](Cc1c[nH]c2ccccc12)NC(=O)[C@H](CCCNC(=N)N)NC(=O)[C@@H](NC(=O)[C@H](Cc1ccccc1)NC(=O)[C@H](CC(=O)O)NC(=O)[C@H](CCCNC(=N)N)NC(=O)[C@H](C)NC(=O)[C@H](CCCNC(=N)N)NC(=O)[C@H](CCCCNC(=O)COCCOCCNC(=O)COCCOCCNC(=O)CC[C@H](NC(=O)CCCCCCCCCCCCCCCCCCC(=O)O)C(=O)O)NC(=O)[C@@H](NC(=O)[C@H](CC(=O)O)NC(=O)[C@H](CC(C)C)NC(=O)[C@](C)(Cc1ccccc1)NC(=O)[C@H](CCCCN)NC(=O)[C@H](CO)NC(=O)[C@@H](NC(=O)[C@H](CC(=O)O)NC(=O)[C@H](CO)NC(=O)[C@@H](NC(=O)[C@H](Cc1ccccc1)NC(=O)[C@@H](NC(=O)CNC(=O)[C@H](CCC(N)=O)NC(=O)C(C)(C)NC(=O)[C@@H](N)Cc1c[nH]cn1)[C@@H](C)O)[C@@H](C)O)C(C)C)[C@@H](C)O)C(C)C)C(=O)N[C@@H](CC(C)C)C(=O)NC(C)(C)C(=O)N[C@@H](CCC(=O)O)C(N)=O) [Peptide 511]
3 | 0.274 nM | H[Aib]QGTFTSDVSK[αMeF]LDSK([AEEA-AEEA-γGlu-γGlu-C18 diacid])RAQDFVQWLL[Aib]T-NH2 (N-terminus assumed; SMILES CC(C)C[C@H](NC(=O)[C@H](Cc1c[nH]c2ccccc12)NC(=O)[C@H](CCC(N)=O)NC(=O)[C@@H](NC(=O)[C@H](Cc1ccccc1)NC(=O)[C@H](CC(=O)O)NC(=O)[C@H](CCC(N)=O)NC(=O)[C@H](C)NC(=O)[C@H](CCCNC(=N)N)NC(=O)[C@H](CCCCNC(=O)COCCOCCNC(=O)COCCOCCNC(=O)CC[C@H](NC(=O)CC[C@H](NC(=O)CCCCCCCCCCCCCCCCC(=O)O)C(=O)O)C(=O)O)NC(=O)[C@H](CO)NC(=O)[C@H](CC(=O)O)NC(=O)[C@H](CC(C)C)NC(=O)[C@](C)(Cc1ccccc1)NC(=O)[C@H](CCCCN)NC(=O)[C@H](CO)NC(=O)[C@@H](NC(=O)[C@H](CC(=O)O)NC(=O)[C@H](CO)NC(=O)[C@@H](NC(=O)[C@H](Cc1ccccc1)NC(=O)[C@@H](NC(=O)CNC(=O)[C@H](CCC(N)=O)NC(=O)C(C)(C)NC(=O)[C@@H](N)Cc1c[nH]cn1)[C@@H](C)O)[C@@H](C)O)C(C)C)C(C)C)C(=O)N[C@@H](CC(C)C)C(=O)NC(C)(C)C(=O)N[C@H](C(N)=O)[C@@H](C)O) [Peptide 463]
4 | 0.0228 nM | H[Aib]QGTFTSDVSK[αMeF]LDTK([AEEA-AEEA-γGlu-C18 diacid])RARDFVQWLL[Aib]TE-NH2 (N-terminus assumed; SMILES CC(C)C[C@H](NC(=O)[C@H](Cc1c[nH]c2ccccc12)NC(=O)[C@H](CCC(N)=O)NC(=O)[C@@H](NC(=O)[C@H](Cc1ccccc1)NC(=O)[C@H](CC(=O)O)NC(=O)[C@H](CCCNC(=N)N)NC(=O)[C@H](C)NC(=O)[C@H](CCCNC(=N)N)NC(=O)[C@H](CCCCNC(=O)COCCOCCNC(=O)COCCOCCNC(=O)CC[C@H](NC(=O)CCCCCCCCCCCCCCCCC(=O)O)C(=O)O)NC(=O)[C@@H](NC(=O)[C@H](CC(=O)O)NC(=O)[C@H](CC(C)C)NC(=O)[C@](C)(Cc1ccccc1)NC(=O)[C@H](CCCCN)NC(=O)[C@H](CO)NC(=O)[C@@H](NC(=O)[C@H](CC(=O)O)NC(=O)[C@H](CO)NC(=O)[C@@H](NC(=O)[C@H](Cc1ccccc1)NC(=O)[C@@H](NC(=O)CNC(=O)[C@H](CCC(N)=O)NC(=O)C(C)(C)NC(=O)[C@@H](N)Cc1c[nH]cn1)[C@@H](C)O)[C@@H](C)O)C(C)C)[C@@H](C)O)C(C)C)C(=O)N[C@@H](CC(C)C)C(=O)NC(C)(C)C(=O)N[C@H](C(=O)N[C@@H](CCC(=O)O)C(N)=O)[C@@H](C)O) [Peptide 489]
5 | 0.0126 nM | H[Aib]QGTFTSDVSK[αMeF]LDTK([AEEA-AEEA-γGlu-C18 diacid])RARDFVQWLLE[Aib]K-NH2 (N-terminus assumed; SMILES CC(C)C[C@H](NC(=O)[C@H](Cc1c[nH]c2ccccc12)NC(=O)[C@H](CCC(N)=O)NC(=O)[C@@H](NC(=O)[C@H](Cc1ccccc1)NC(=O)[C@H](CC(=O)O)NC(=O)[C@H](CCCNC(=N)N)NC(=O)[C@H](C)NC(=O)[C@H](CCCNC(=N)N)NC(=O)[C@H](CCCCNC(=O)COCCOCCNC(=O)COCCOCCNC(=O)CC[C@H](NC(=O)CCCCCCCCCCCCCCCCC(=O)O)C(=O)O)NC(=O)[C@@H](NC(=O)[C@H](CC(=O)O)NC(=O)[C@H](CC(C)C)NC(=O)[C@](C)(Cc1ccccc1)NC(=O)[C@H](CCCCN)NC(=O)[C@H](CO)NC(=O)[C@@H](NC(=O)[C@H](CC(=O)O)NC(=O)[C@H](CO)NC(=O)[C@@H](NC(=O)[C@H](Cc1ccccc1)NC(=O)[C@@H](NC(=O)CNC(=O)[C@H](CCC(N)=O)NC(=O)C(C)(C)NC(=O)[C@@H](N)Cc1c[nH]cn1)[C@@H](C)O)[C@@H](C)O)C(C)C)[C@@H](C)O)C(C)C)C(=O)N[C@@H](CC(C)C)C(=O)N[C@@H](CCC(=O)O)C(=O)NC(C)(C)C(=O)N[C@@H](CCCCN)C(N)=O) [Peptide 480]

Continued, binder first:

Row | Binder | cAMP production EC50
6 | H[αMeS]QGS[αMeF]TSDVSKILDSK([PEG2′-PEG2′-γGlu-Palmitoyl])AAQD[αMeF]VQ[Aib]IINT-NH2 [Peptide 134] | 0.000592 nM
7 | H[αMeS]QGS[αMeF]TSDVSKILDSK([PEG2′-PEG2′-γGlu-Myristoyl])AAQD[αMeF]VQ[Aib]IINT-NH2 [Peptide 135] | 0.000407 nM
8 | H[Aib]QGTFTSDVSK[αMeF]LDTK([AEEA-AEEA-γGlu-C18 diacid])RAQDFVRWLLE[Aib]G-OH (N-terminus assumed; SMILES CC(C)C[C@H](NC(=O)[C@H](Cc1c[nH]c2ccccc12)NC(=O)[C@H](CCCNC(=N)N)NC(=O)[C@@H](NC(=O)[C@H](Cc1ccccc1)NC(=O)[C@H](CC(=O)O)NC(=O)[C@H](CCC(N)=O)NC(=O)[C@H](C)NC(=O)[C@H](CCCNC(=N)N)NC(=O)[C@H](CCCCNC(=O)COCCOCCNC(=O)COCCOCCNC(=O)CC[C@H](NC(=O)CCCCCCCCCCCCCCCCC(=O)O)C(=O)O)NC(=O)[C@@H](NC(=O)[C@H](CC(=O)O)NC(=O)[C@H](CC(C)C)NC(=O)[C@](C)(Cc1ccccc1)NC(=O)[C@H](CCCCN)NC(=O)[C@H](CO)NC(=O)[C@@H](NC(=O)[C@H](CC(=O)O)NC(=O)[C@H](CO)NC(=O)[C@@H](NC(=O)[C@H](Cc1ccccc1)NC(=O)[C@@H](NC(=O)CNC(=O)[C@H](CCC(N)=O)NC(=O)C(C)(C)NC(=O)[C@@H](N)Cc1c[nH]cn1)[C@@H](C)O)[C@@H](C)O)C(C)C)[C@@H](C)O)C(C)C)C(=O)N[C@@H](CC(C)C)C(=O)N[C@@H](CCC(=O)O)C(=O)NC(C)(C)C(=O)NCC(=O)O) [Peptide 140] | 0.0227 nM

Target: human glucagon receptor (human, UniProt P47871)
Assay: cell-based or functional assay

Row | cAMP production EC50 | Binder
9 | 0.015 nM | H[αMeS]QGS[αMeF]TSDVSKILDSK([PEG2′-PEG2′-γGlu-Palmitoyl])AAQD[αMeF]VQ[Aib]IINT-NH2 [Peptide 134]
10 | 0.385 nM | H[Aib]QGTFTSDVSK[αMeF]LDTK([AEEA-AEEA-γGlu-γGlu-C20 diacid])RARDFVQWLLE[Aib]G-NH2 [Peptide 458]
11 | 0.015 nM | H[αMeS]QGS[αMeF]TSDVSKILDSK([PEG2′-PEG2′-γGlu-Myristoyl])AAQD[αMeF]VQ[Aib]IINT-NH2 [Peptide 135]
12 | 0.335 nM | H[Aib]QGTFTSDVSK[αMeF]LDTK([AEEA-AEEA-γGlu-C18 diacid])RAQDFVQWLL[Aib]T-OH (N-terminus assumed; SMILES CC(C)C[C@H](NC(=O)[C@H](Cc1c[nH]c2ccccc12)NC(=O)[C@H](CCC(N)=O)NC(=O)[C@@H](NC(=O)[C@H](Cc1ccccc1)NC(=O)[C@H](CC(=O)O)NC(=O)[C@H](CCC(N)=O)NC(=O)[C@H](C)NC(=O)[C@H](CCCNC(=N)N)NC(=O)[C@H](CCCCNC(=O)COCCOCCNC(=O)COCCOCCNC(=O)CC[C@H](NC(=O)CCCCCCCCCCCCCCCCC(=O)O)C(=O)O)NC(=O)[C@@H](NC(=O)[C@H](CC(=O)O)NC(=O)[C@H](CC(C)C)NC(=O)[C@](C)(Cc1ccccc1)NC(=O)[C@H](CCCCN)NC(=O)[C@H](CO)NC(=O)[C@@H](NC(=O)[C@H](CC(=O)O)NC(=O)[C@H](CO)NC(=O)[C@@H](NC(=O)[C@H](Cc1ccccc1)NC(=O)[C@@H](NC(=O)CNC(=O)[C@H](CCC(N)=O)NC(=O)C(C)(C)NC(=O)[C@@H](N)Cc1c[nH]cn1)[C@@H](C)O)[C@@H](C)O)C(C)C)[C@@H](C)O)C(C)C)C(=O)N[C@@H](CC(C)C)C(=O)NC(C)(C)C(=O)N[C@H](C(=O)O)[C@@H](C)O) [Peptide 35]
